Target: T1, MEI-2, wild type (from MBP-TEV-MEI-2) (C. elegans, UniProt O44740 1-280)
T1 sequence (looked up): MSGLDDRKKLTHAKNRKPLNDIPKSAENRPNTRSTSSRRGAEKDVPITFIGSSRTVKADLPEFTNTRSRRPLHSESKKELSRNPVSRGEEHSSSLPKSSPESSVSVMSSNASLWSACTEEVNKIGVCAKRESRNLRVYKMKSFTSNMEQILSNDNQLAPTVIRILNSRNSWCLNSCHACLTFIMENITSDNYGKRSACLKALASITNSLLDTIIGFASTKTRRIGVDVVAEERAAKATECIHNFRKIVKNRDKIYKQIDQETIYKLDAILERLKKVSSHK
Experiment: pull-down

stoichiometry N: 1 MEI-1:MEI-2
B1: MEI-1 (short isoform), untagged, wild type (enzyme, C. elegans, UniProt P34808 1-472, looked up)
chain: MNGDVQSVIRGYLERAQVAKTMSDAGRWNEAGDLLRQLMTDVKSCKISASNRDEHDARNTFLRALEANLKLVQQNVRDEDDLHEAMTRQSGSPEPPADPDVWSKPSPPLPSSSKFGATKKGVGAAGPRPREISKSTSSMSTNPADVKPANPTQGILPQNSAGDSFDASAYDAYIVQAVRGTMATNTENTMSLDDIIGMHDVKQVLHEAVTLPLLVPEFFQGLRSPWKAMVLAGPPGTGKTLIARAIASESSSTFFTVSSTDLSSKWRGDSEKIVRLLFELARFYAPSIIFIDEIDTLGGQRGNSGEHEASRRVKSEFLVQMDGSQNKFDSRRVFVLAATNIPWELDEALRRRFEKRIFIPLPDIDARKKLIEKSMEGTPKSDEINYDDLAARTEGFSGADVVSLCRTAAINVLRRYDTKSLRGGELTAAMESLKAELVRNIDFEAALQAVSPSAGPDTMLKCKEWCDSFGAM

— PMC3967969 (Molecular Biology of the Cell, 2014)
